Reference: US20090081229A1 (published 2009)

Assays:
[1] = biological target: T1, HVEM expressed on transfected 293 cells (Homo sapiens (Human), UniProt Q92956 39-283); assay: radioligand binding to transfected cells, Scatchard analysis
T1 construct: Transient transfection of human 293 cells with pRK5-HVEM; also called HVEM transfected cells; 293 cells expressing HVEM
T1 sequence: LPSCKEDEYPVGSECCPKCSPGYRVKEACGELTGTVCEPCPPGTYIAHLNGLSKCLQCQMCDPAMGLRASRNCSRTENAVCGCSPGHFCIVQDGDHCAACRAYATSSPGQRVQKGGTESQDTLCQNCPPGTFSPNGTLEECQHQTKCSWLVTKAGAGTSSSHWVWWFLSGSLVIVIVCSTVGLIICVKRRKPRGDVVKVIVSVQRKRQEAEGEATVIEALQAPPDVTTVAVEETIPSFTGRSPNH
Description: (§1) PRO87299 binds to HVEM in a cell based assay. In this experiment human 293 cells (ATCC CCL 1573) are grown to confluence in tissue culture plates in medium such as DMEM supplemented with fetal calf serum and optionally, nutrient components and/or antibiotics. About 10 μg pRK5-HVEM DNA is mixed with about 1 μg DNA encoding the VA RNA gene [Thimmappaya et al., Cell, 31:543 (1982)] and dissolved in 500 μl of 1 mM Tris-HCl, 0.1 mM EDTA, 0.227 M CaCl₂. To this mixture is added, dropwise, 500 μl of 50 mM HEPES (pH 7.35), 280 mM NaCl, 1.5 mM NaPO₄, and a precipitate is allowed to form for 10 minutes at 25° C. The precipitate is suspended and added to the 293 cells and allowed to settle for about four hours at 37° C. The culture medium is aspirated off and 2 ml of 20% glycerol in PBS is added for 30 seconds. The 293 cells are then washed with serum free medium, fresh medium is added and the cells are incubated for about 5 days. Alternatively, about 10 μg pRK5-HVEM DNA is mixed with LipofectAMINE™ (Gibco/BRL, Gaithersburg Md.) reagent and transfection performed by following the manufacturer's instructions. After the 293 cells were transfected with HVEM, they were incubated with 1125 radiolabled PRO87299(ECD)-Fc and binding allowed to occur. The radiolabled PRO87299 was then competed off with unlabled PRO87299(ECD)-Fc and the estimated number of total binding sites and the dissociation constant (Kd) were determined by Scatchard analysis. FIG. 17(A) is a Scatchard plot and FIG. 17(B) is a displacement plot showing PRO87299(ECD)-Fc binding to HVEM transiently transfected cells. […] Using this methodology, the affinity of HVEM/LIGHT/PRO87299 interactions were determined.

PRO87299(ECD)-Fc [2] = biological target: T2, PRO87299(ECD)-Fc (human, UniProt Q7Z6A9 31-155); assay: SPR (Biacore), PRO87299-Fc amine coupled at ~9800 RU
T2 construct: Reduced apparent molecular weight 55 kDa; also called PRO87299-Fc; PRO87299(ECD)-Fc chimera; not shown: human Fc domain
T2 sequence: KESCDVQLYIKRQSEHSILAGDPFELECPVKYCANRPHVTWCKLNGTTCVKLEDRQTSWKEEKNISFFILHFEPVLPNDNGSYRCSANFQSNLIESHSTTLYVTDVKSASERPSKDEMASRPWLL
Description: PRO87299 interaction to HVEM is not blocked by LIGHT. PRO87299-Fc was amine coupled to a Biacore™ CM5 sensor chip at ˜9800 response units. LIGHT (purchased from Alexis™, Cat. #552-018-C010) was incubated at the increasing concentrations with 4 nM HVEM for 1 hr. […] LIGHT activity was confirmed by binding to immobilized HVEM-Fc on a CM5 sensor chip (data not shown). […] All binding sensograms were run in random order and in duplicate. Response units were recorded as the difference between baseline and 15 seconds before the end of a 2 min injection at 5 μl/min. Concentrations are based on molecular weights of 25 kDa for LIGHT monomer and 55 kDa for monomer HVEM.

PRO87299(ECD)-Fc [3] = biological target: T2, PRO87299(ECD)-Fc; assay: SPR (Biacore), PRO87299(ECD)-Fc amine coupled at ~8000 RU
Description: (§2) In this experiment, PRO87299(ECD)-Fc and CD28 family members hCTLA4-Fc, hPD-1-Fc, hICOS-Fc or hCD28-Fc were amine coupled to a Biacore™ CM5 chip at approximately 8000 response units. Each was then assayed for its ability to bind HVEM. An HVEM-Fc protein was made by ligating the nucleic acids encoding amino acids 1-199 of HVEM to a Fc, resulting in a HVEM-Fc fusion protein. This HVEM-Fc was cloned into an a expression vector which would produce the fusion protein when stably transfected into CHO cells. […] The result was 2 μg/ml of HVEM-Fc injected at 5 μl/min bound selectively to PRO87299 and not to the other member of the CD28 family members tested. The activity of each CD28 family member was confirmed positive by testing the binding response to their known ligands (data not shown) (CD28 family members and ligands were purchased from R&D systems).

hCD28-Fc = biological target: T3, hCD28-Fc (human, UniProt P10747 19-152); assay: SPR (Biacore), hCD28-Fc amine coupled at approximately 8000 RU
T3 construct: Bought; not shown: Fc; not described
Description: as §2

hICOS-Fc = biological target: T4, hICOS-Fc (human, UniProt Q9Y6W8 21-141); assay: SPR (Biacore), hICOS-Fc amine coupled at approximately 8000 RU
T4 construct: Bought; not shown: Fc; not described
T4 sequence (looked up): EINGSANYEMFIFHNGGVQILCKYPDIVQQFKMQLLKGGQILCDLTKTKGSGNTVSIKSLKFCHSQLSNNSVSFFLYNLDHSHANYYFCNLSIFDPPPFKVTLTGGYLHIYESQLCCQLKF
Description: as §2

hPD-1-Fc = biological target: T5, hPD-1-Fc (human, UniProt Q15116 25-167); assay: SPR (Biacore), hPD-1-Fc amine coupled at approximately 8000 RU
T5 construct: Bought; not shown: Fc; not described
Description: as §2

hCTLA4-Fc = biological target: T6, hCTLA4-Fc (human, UniProt P16410 37-162, limits assumed); assay: SPR (Biacore), hCTLA4-Fc amine coupled at approximately 8000 RU
T6 construct: Bought; not shown: Fc; not described
T6 sequence (looked up): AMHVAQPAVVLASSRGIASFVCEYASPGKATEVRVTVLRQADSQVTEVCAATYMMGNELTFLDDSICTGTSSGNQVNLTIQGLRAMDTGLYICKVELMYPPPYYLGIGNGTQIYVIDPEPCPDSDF
Description: as §2

[4] = biological target: T7, PRO87299 expressed on cells (human, UniProt Q7Z6A9 31-289); assay: radioligand binding to transfected cells, Scatchard analysis
T7 construct: also called PRO87299 transfected cells; 293 cells expressing PRO87299
Description: as §1

[5] = biological target: T8, LIGHT expressed on transfected cells (Homo sapiens (Human), UniProt O43557 1-240); assay: as above
T8 construct: also called LIGHT (expressed protein)
Description: as §1

[6] = biological target: T9, PRO87299/LIGHT (both expressed on the same transfected cells) (human, UniProt Q7Z6A9 31-289; O43557 1-240); assay: radioligand binding to cells expressing both PRO87299 and LIGHT, Scatchard analysis
T9 construct: Two proteins co-expressed on cells as the target of I-125-HVEM-Fc; not a defined complex

T5 sequence (Q15116 25-167 limits assumed): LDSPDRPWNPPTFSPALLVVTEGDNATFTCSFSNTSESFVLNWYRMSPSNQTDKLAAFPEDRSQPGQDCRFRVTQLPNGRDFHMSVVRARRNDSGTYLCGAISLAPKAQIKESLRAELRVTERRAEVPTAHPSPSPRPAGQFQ
T3 sequence (P10747 19-152 limits assumed): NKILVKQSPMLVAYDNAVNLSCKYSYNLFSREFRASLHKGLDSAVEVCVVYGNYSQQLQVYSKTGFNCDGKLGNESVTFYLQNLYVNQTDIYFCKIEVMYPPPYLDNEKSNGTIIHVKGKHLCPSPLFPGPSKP

B1: LIGHT-FLAG (ligand)
chain: GEMVTRLPDGPAGSWEQLIQERRSHEVNPAAHLTGANSSLTGSGGPLLWETQLGLAFLRGLSYHDGALVVTKAGYYYIYSKVQLGGVGCPLGLASTITHGLYKRTPRYPEELELLVSQQSPCGRATSSSRVWWDSSFLGGVVHLEAGEEVVVRVLDERLVRLRDGTRSYFGAFMV
notes: Radio-iodinated; also called I-125-LIGHT-FLAG; not shown: FLAG tag
In the case of B1, the Kd [1] is reported as 2.5 nM.

B2: LIGHT (soluble, purchased from Alexis, Cat. #552-018-C010) (ligand)
chain: B1 chain
notes: Bought soluble protein; Monomer molecular weight 25 kDa used for concentrations
B2: no binding (PRO87299(ECD)-Fc [2]).

B3: HVEM-Fc (Fc fusion)
chain: LPSCKEDEYPVGSECCPKCSPGYRVKEACGELTGTVCEPCPPGTYIAHLNGLSKCLQCQMCDPAMGLRASRNCSRTENAVCGCSPGHFCIVQDGDHCAACRAYATSSPGQRVQKGGTESQDTLCQNCPPGTFSPNGTLEECQHQTKCSWLVTKAGAGTSSS
notes: Produced in stably transfected CHO cells, Protein A purified; also called HVEM-Fc fusion protein; I-125-HVEM-Fc; not shown: Fc
B3: binds (PRO87299(ECD)-Fc [3]); no binding (tested: 2 µg/ml) (hCD28-Fc); no binding (tested: 2 µg/ml) (hICOS-Fc). The binding result (hPD-1-Fc) was “no binding (tested: 2 µg/ml)”, the binding result (hCTLA4-Fc) was “no binding (tested: 2 µg/ml)” and the Kd [4] was 5.5 nM. It also gave a Kd [5] of 7 nM and a Kd [6] of 0.5 nM.
